Sequences and labels used below:
T1: mouse IL-22BP-His (mouse, UniProt Q80XF5 21-230)
T1 chain: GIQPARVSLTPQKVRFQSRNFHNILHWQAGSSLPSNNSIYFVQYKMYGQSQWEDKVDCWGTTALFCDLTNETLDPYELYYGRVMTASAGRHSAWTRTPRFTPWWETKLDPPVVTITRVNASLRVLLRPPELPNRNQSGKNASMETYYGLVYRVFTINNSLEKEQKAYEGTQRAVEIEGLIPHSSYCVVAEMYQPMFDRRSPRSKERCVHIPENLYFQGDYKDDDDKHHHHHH

T2: human IL-22BP (Isoform 2)-His (human, UniProt Q969J5 22-263)
T2 construct: Expressed in FreeStyle 293F cells and purified from the culture supernatant; also called human IL-22BP-His
T2 sequence: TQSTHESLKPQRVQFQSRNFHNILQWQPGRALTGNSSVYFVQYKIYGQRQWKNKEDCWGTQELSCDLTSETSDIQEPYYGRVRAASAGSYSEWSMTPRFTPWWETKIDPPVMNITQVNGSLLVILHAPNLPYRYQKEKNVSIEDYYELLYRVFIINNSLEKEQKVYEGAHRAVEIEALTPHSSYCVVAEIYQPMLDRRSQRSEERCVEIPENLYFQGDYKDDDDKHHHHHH

T3: monkey IL-22BP-His (monkey)
T3 chain: T2 sequence with S3P, T4A, S64F, E92D, Y132Q, V140I, L149V, A172V, T179P, I209M

B1: rat anti-human IL-22BP antibody rMAb4 (antibody, rat IgG1, V domains shown)
VH: EVQLVESGGGLVQPGRSLKLSCAASGFTYSNYVMAWVRQAPTKGLEWVASISTGGGNTSYRDSVKGRFTISRDNAKNTLYLQMDSLRSEDTATYYCANVSPTEGMDYWGQGVMVTVSS
VL: DIVMTQGALPNPVPSGESVSITCRSSKSLLYSNGKTYLNWYLQRPGQSPQLLIYWMSTRASGVSDRFSGGGSGTDFTLKISGVEAEDVGVYYCQQGLELPLTFGSGTKLEIKR
notes: Rat IgG1, kappa chain, from hybridoma
B2: rat anti-human IL-22BP antibody rMAb81 (antibody, rat IgG1, V domains shown)
VH: EVQLVESGGGLVQPGRSLKLSCLASGFTFSNYGMNWIRQAPGKGLEWVATISSGSSYIYYADTVKGRFTISRENARNTLYLQMTSLRSEDTAFYYCARPLTGAFDYWGQGVMVTVSS
VL: DIVLTQSPALAASLGQRATISCRASQSVSTSSHNLMHWYQQKPGHQPKLLIYAASNLASSIPARFSGSGSGTDFTLTINPVQADDIATYYCQQSRELPLTFGSGTKLEIKR
notes: as for B1
B3: rat anti-human IL-22BP antibody rMAb20 (antibody, rat IgG1, V domains shown)
VH: QVQLKESGPGLVQPSQTLSLACTVSGFSLTTYHVHWVRQPSGEGLEWMGVIWTGGSTEYNSALKPRLSISRDTSKSQVFLKMNVLQTEDTATYYCARESRGRRIFDYWGQGVMVTVSS
VL: DIQMTQSPSVLSASVGDRVTLNCKASQNINKYLNWYQQKLGEAPKLLIYNTNNLQTGIPSRFSGSGSGTDYTLTISSLQPEDFGTYFCFHHNSWPLTFGSGTKLEIKR
notes: as for B1
B4: rat anti-human IL-22BP antibody rMAb3 (antibody, rat IgG1, V domains shown)
VH: EVQLQQSGAELVRPGTSVKLSCKLSGGTISAYFIHFVKQRPGQGLEWIGRIDPEDDSTEYAEKFKNKATLTADTSSNTAYLILGSLTSDDTATYFCTTGSDYWGQGVMVTVSS
VL: DVVMTQTPVSLSLAIGQPASISCKSSQSLLGTSGKTFLNWILQRPGQSPKRLIYQVSKLYSGVPDRFSGSGSETEFTLKISRVEAEDLGVYYCWQGTLFPRTFGGGTKLEVKR
notes: as for B1
B5: rat anti-human IL-22BP antibody rMAb8 (antibody, rat IgG2a, V domains shown)
VH: QVQLKESGPGLVQPSQTLSLTCTVSGFSLSSYTVSWVRQPPGKGLDWIAAISSGGSTYYNSALKSRLTISRDTSKSQVFLKMNSLQTEDTAMYFCARSTGDYWGQGVMVTVSS
VL: DIQMTQSPSLLSASVGDRVTLNCKASQSIYKNLAWYQQKLGEAPKLLIYSAKSLQTGTPSRFSGSGSGTDFTLTISSLQPEDVATYFCHQYYSGWTFGGGTKLELKR
notes: Rat IgG2a, kappa chain, from hybridoma
B6: rat anti-human IL-22BP antibody rMAb14 (antibody, rat IgG1, V domains shown)
VH: B5 VH with S30T, D46E, T68S, N83S, T90A
VL: B5 VL with S28N, A43T, K45R, K52N, S53R, T58I
notes: as for B1
B7: humanized anti-human IL-22BP antibody hMAb4_H03L01 (antibody, human IgG1, kappa, V domains shown)
VH: EVQLVESGGGLVQPGGSLRLSCAASGFTYSNYVMAWVRQAPGKGLEWVASISTGGGNTAYRDSVKGRFTISRDNSKNTLYLQMNSLRAEDTAVYYCARVSPTEGMDYWGQGTLVTVSS
VL: DIVMTQGPLSLPVTPGEPASISCRSSKSLLYSNGKTYLNWYLQKPGQSPQLLIYWMSTRASGVPDRFSGGGSGTDFTLKISRVEAEDVGVYYCQQGLELPLTFGQGTKVEIKR
notes: Human IgG1 / kappa
B8: humanized anti-human IL-22BP antibody hMAb4_H02L05 (antibody, human IgG1, kappa, V domains shown)
VH: B7 VH with A49S
VL: DIQMTQSPSSLSASVGDRVTITCRSSKSLLYSNGKTYLNWYQQKPGKSPKLLIYWMSTRASGVPDRFSGGGSGTDFTLTISSLQPEDFATYYCQQGLELPLTFGQGTKVEIKR
notes: Human IgG1 / kappa
B9: humanized anti-human IL-22BP antibody hMAb4_H03L03 (antibody, human IgG1, kappa, V domains shown)
VH: B7 VH
VL: DIVMTQGPDSLAVSLGERATITCRSSKSLLYSNGKTYLNWYQQKPGQPPKLLIYWMSTRASGVPDRFSGGGSGTDFTLTISSLQAEDVAVYYCQQGLELPLTFGQGTKVEIKR
notes: Human IgG1 / kappa
B10: human chimeric anti-human IL-22BP antibody cMAb4 (antibody, human IgG1, kappa, V domains shown)
VH: B1 VH with S59A, N98R
VL: B1 VL
notes: Rat variable regions on human IgG1 / kappa constant regions
B11: human chimeric anti-human IL-22BP antibody cMAb3 (antibody, human IgG1, kappa, V domains shown)
VH: B4 VH
VL: B4 VL
notes: as for B10
B12: humanized anti-human IL-22BP antibody hMAb3_H01L03 (antibody, human IgG1, kappa, V domains shown)
VH: EVQLVQSGAEVKKPGASVKVSCKASGGTISAYFIHWVRQAPGQGLEWMGRIDPEDDSTEYAQKFQGRVTITADTSTNTAYMELSSLRSEDTAVYYCTTGSDYWGQGTLVTVSS
VL: B4 VL with S12P, L13V, A14T, I15L, L42Q, E73G, E75D, L88V, L109V, V111I
notes: Human IgG1 / kappa
B13: humanized anti-human IL-22BP antibody hMAb3_H04L03 (antibody, human IgG1, kappa, V domains shown)
VH: B12 VH with A24L, W36F, I70L, M81L, Y95F
VL: B4 VL with S12P, L13V, A14T, I15L, L42Q, E73G, E75D, L88V, L109V, V111I
notes: Human IgG1 / kappa
B14: humanized anti-human IL-22BP antibody hMAb3_H01L04 (antibody, human IgG1, kappa, V domains shown)
VH: B12 VH
VL: DVVMTQSPLSLPVTLGQPASISCKSSQSLLGTSGKTFLNWIQQRPGQSPKRLIYQVSKLYSGVPDRFSGSGSGTEFTLKISRVEAEDVGVYYCWQGTLFPRTFGGGTKVEIKR
notes: Human IgG1 / kappa

These results are taken from WO2021241730A1 (dated 2021).

Numbering of substitutions follows the chain as printed.

One test has as its target T1, mouse IL-22BP-His. The test is described as follows: direct ELISA on coated mouse IL-22BP-His. (In an ELISA, binding on a coated surface is turned into a signal by an enzyme label.)
In the case of B1, the binding result was “no binding”. On the same count and under the same terms, under B2 stands “no binding”; under B3, “no binding”; under B4, “no binding”.

Another test addresses T2, human IL-22BP (Isoform 2)-His. Put plainly: direct ELISA on coated human IL-22BP-His, purified rat antibody.
On to B5, for which the binding result is on record as “binds”.

Consider B6, for which the binding result is on record as “binds”. Still for that read-out and setting: under B2 stands “binds”.

As for B3, the binding result is given as “binds”.

Another test has as its target T1, mouse IL-22BP-His. Put plainly: direct ELISA on coated mouse IL-22BP-His, purified rat antibody.
With B5, the binding result is “binds”. For B6, the binding result is reported as “binds”.

Another test concerns the target T3, monkey IL-22BP-His. The test is described as follows: direct ELISA on coated monkey IL-22BP-His, purified rat antibody.
Regarding B5, the binding result is listed as “binds”. As to B6, the binding result was “binds”. Still for that read-out and setting: with B1 the entry was “binds”. Turning to B2, the binding result is recorded as “binds”. With B3, the binding result was “binds”. Regarding B4, the binding result is “binds”.

The target in the next test is T2, human IL-22BP (Isoform 2)-His. The test is described as follows: direct ELISA screen on coated human IL-22BP-His, then competition ELISA with IL-22; hybridoma supernatant.
As to B1, the binding result is “binds”. Consider B4, for which the binding result is reported as “binds”.

A further test has the same target. The test is described as follows: competition ELISA on captured human IL-22BP-His, IL-22 as competitor; weaker inhibitory tendency than cMAb3 and the hMAb3 antibodies.
Turning to B7, the binding result is recorded as “binds”. The same measure, in the same setting: under B8 stands “binds”; under B9, “binds”.

Take B10: the binding result is recorded as “binds”.

Another test has the same target. Put plainly: competition ELISA on captured human IL-22BP-His, IL-22 as competitor; stronger inhibitory tendency than cMAb4 and the hMAb4 antibodies.
In the case of B11, the binding result is “binds”. On the same count and under the same terms, under B12 stands “binds”; under B13, “binds”. Turning to B14, the binding result was “binds”.
